Reference: patent US20220064329A1 (Novo Nordisk, published 2022)
Positions count from the first letter of the chain named.

Experiments:
FVII(a) variant I186A = molecular target: T1, FVII(a) variant I186A (human, UniProt P08709 61-466); experiment: SPR, ratio of KD to KD of WT
T1 construct: hFVII alanine variant in cell culture supernatant
T1 sequence: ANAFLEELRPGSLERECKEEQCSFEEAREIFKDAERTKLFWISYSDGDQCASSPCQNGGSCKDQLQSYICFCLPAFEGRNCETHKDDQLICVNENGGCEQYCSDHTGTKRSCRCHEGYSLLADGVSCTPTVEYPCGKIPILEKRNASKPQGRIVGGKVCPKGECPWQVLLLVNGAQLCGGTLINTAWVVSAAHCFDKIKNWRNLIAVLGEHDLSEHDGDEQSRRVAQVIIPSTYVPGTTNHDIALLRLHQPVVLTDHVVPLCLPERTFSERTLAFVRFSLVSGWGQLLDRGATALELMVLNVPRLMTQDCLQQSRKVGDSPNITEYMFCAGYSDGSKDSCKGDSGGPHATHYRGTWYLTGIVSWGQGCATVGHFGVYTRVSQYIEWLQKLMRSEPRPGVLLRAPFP

FVII(a) variant V252A = molecular target: T2, FVII(a) variant V252A (human, UniProt P08709 61-466); experiment: SPR, ratio of KD to KD of WT
T2 construct: hFVII alanine variant in cell culture supernatant
T2 sequence: T1 sequence with A186I, V252A

FVII(a) variant R113A = molecular target: T3, FVII(a) variant R113A (human, UniProt P08709 61-466); experiment: SPR, ratio of KD to KD of WT
T3 construct: hFVII alanine variant in cell culture supernatant
T3 sequence: T1 sequence with R113A, A186I

FVII(a) variant T130A = molecular target: T4, FVII(a) variant T130A (human, UniProt P08709 61-466); experiment: SPR, ratio of KD to KD of WT
T4 construct: hFVII alanine variant in cell culture supernatant
T4 sequence: T1 sequence with T130A, A186I

FVII(a) variant S119A = molecular target: T5, FVII(a) variant S119A (human, UniProt P08709 61-466); experiment: SPR, Biacore T200, 25 C; FVII(a) variant captured on anti-Gla Ab 4F6, mAb0842(OA) injected
T5 construct: hFVII alanine variant in cell culture supernatant
T5 sequence: T1 sequence with S119A, A186I
Description: The running buffer was prepared by diluting 10-fold the 10×HBS-P buffer (supplied by GE Healthcare) and supplemented with 1 mg/ml BSA and 5 mM CaCl2 to give 10 mM HEPES, 150 mM NaCl, 0.05% v/v Polysorbate 20, pH 7.4, 5 mM CaCl2, 1 mg/ml bovine serum albumin (BSA). […] Regeneration of the chip was achieved using 10 mM HEPES, 150 mM NaCl, 20 mM EDTA, 0.05 v/v Polysorbate 20, pH 7.4. Binding data were analysed according to a 1:1 Kinetic model and steady state analysis using BiaEvaluation 4.1 supplied by the manufacturer (Biacore AB, Uppsala, Sweden). Wherever possible, ka, kd and KD values from 1:1 kinetic fitting model are reported. […] An amino acid residue is considered a hot-spot residue if substitution of that amino acid residue with alanine results in an affinity reduction of ten (10) fold or more relative to the wild type.

Fold diff (Variant/WT) (FVII(a) variant I186A): 1.3 fold
Fold diff (Variant/WT) (FVII(a) variant V252A): 0.9 fold
Fold diff (Variant/WT) (FVII(a) variant R113A): 1 fold
Fold diff (Variant/WT) (FVII(a) variant T130A): 105 fold
Kd (FVII(a) variant S119A): 0.31 nM
B1: mAb0842(OA) (antibody, human IgG4 S228P, kappa)
heavy: QVQLQESGPGLVKPSQTLSLTCTVSGYSISSDSAWSWIRQPPGKGLEWIGYIQYSGSTNYNPSLKSRVTISRDTSKNQFSLKLSSVTAADTAVYYCARSVNYYGNSFAVGYWGQGTLVTVSSASTKGPSVFPLAPCSRSTSESTAALGCLVKDYFPEPVTVSWNSGALTSGVHTFPAVLQSSGLYSLSSVVTVPSSSLGTKTYTCNVDHKPSNTKVDKRVESKYGPPCPPCPAPEFLGGPSVFLFPPKPKDTLMISRTPEVTCVVVDVSQEDPEVQFNWYVDGVEVHNAKTKPREEQFNSTYRVVSVLTVLHQDWLNGKEYKCKVSNKGLPSSIEKTISKAKGQPREPQVYTLPPSQEEMTKNQVSLSCAVKGFYPSDIAVEWESNGQPENNYKTTPPVLDSDGSFFLVSRLTVDKSRWQEGNVFSCSVMHEALHNHYTQKSLSLSLGK
light: EIVLTQSPATLSLSPGERATLSCRASQGISDYLHWYQQKPGEAPRLLIKYTSQPATGIPARFSGSGSGTDFTLTISSLEPEDFAVYYCQNGHSFPLTFGQGTKLEIKRTVAAPSVFIFPPSDEQLKSGTASVVCLLNNFYPREAKVQWKVDNALQSGNSQESVTEQDSKDSTYSLSSTLTLSKADYEKHKVYACEVTHQGLSSPVTKSFNRGEC
chain: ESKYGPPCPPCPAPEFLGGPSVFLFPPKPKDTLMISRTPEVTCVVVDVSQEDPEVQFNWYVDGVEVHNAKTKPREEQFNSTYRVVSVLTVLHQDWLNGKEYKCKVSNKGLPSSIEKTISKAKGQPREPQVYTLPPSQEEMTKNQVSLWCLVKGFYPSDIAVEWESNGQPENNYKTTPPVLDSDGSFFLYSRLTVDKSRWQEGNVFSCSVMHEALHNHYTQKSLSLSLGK
notes: also called monovalent humanized 11F2 antibody; one-armed anti-FVII(a) antibody
